Reference: patent US20220396822A1, “Method for Measuring Pentosidine and Measurement Kit” (Kikkoman Corporation, priority 2019, published 2022)

B1: PenOX1: protein having the amino acid sequence of SEQ ID NO: 2, pentosidine oxidase from a filamentous fungus of the genus Sarocladium (protein, listed as Sarocladium sp.)
chain: MKSPSLAVAGLLLGSSSLSHATQLRIETRKSLNSRIANVHIDVDAPVAHQVVFTYGPCDSESQENAHHVIAQSQKLEGRKPHRLIWTMPKDLHPDDCISAWGESGDLLGRSVPQKVAHKEMRRRKRDDSDYSIPMNSSSGIDVYGPWFDGVALLEKSDNHNVDVEAAKAKEIAIVGAGMAGLTTYFILSEAGLSNLTILEASGRLGGRVRTEYLSGGPRDHSYAEMGPMRIPYQARFGDKAYNISDQAIFFRLVEKVNERNKKLGNTKDLINLIPFIQSSPNGLAYYQGNKLENGLPPTQADVAADPALGNESPEIPESAQELAAQLQRALPNAEFLELMATNFWQAHAEFLENQGPAGLPGDQWSEFAFLVNYLNATVFDANAVTGGYDWHSSLDRSSLVGMNLLPNAFHPLVDDITKFNAKVEKVQLDEKTSRLKLHWRANYTDPELESQSFDYAILSPTMPAVQKLRLPGLPFAMRNAVDSMPYASACKVALEYRTRFWEKFDNPIYGSCSTSTDIPGIGSVCYPSSNINGSGPASLLASYEIGRPYGAEWAGIPEEQHVQYVIDAMIDIHGEVARREFTGKCKRKCWALDEFSNGGWASPTVGNHETYLPSFFETHSHMIFVGEHTSYTHAWIASAIESAVRGSVQLLLELGLIDEAKDVVNTWMARWISVVSDLSKAVVSGASA
B2: Crotalus Atrox-Derived Amino Acid Oxidase Type I: purchased enzyme manufactured by Merck KGaA, SEQ ID NO: 13 (protein)
chain: AHDRNPLEECFRETDYEEFLEIAKNGLTATSNPKRVVIVGAGMAGLSAAYVLAGAGHQVTVLEASERVGGRVRTYRKKDWYANLGPMRLPTKHRIVREYIKKFDLKLNEFSQENENAWYFIKNIRKRVREVKNNPGLLEYPVKPSEEGKSAAQLYVESLRKVVEELRSTNCKYILDKYDTYSTKEYLLKEGNLSPGAVDMIGDLLNEDSGYYVSFIESLKHDDIFGYEKRFDEIVGGMDQLPTSMYEAIKEKVQVHFNARVIEIQQNDREATVTYQTSANEMSSVTADYVIVCTTSRAARRIKFEPPLPPKKAHALRSVHYRSGTKIFLTCTKKFWEDDGIHGGKSTTDLPSRFIYYPNHNFTSGVGVIIAYGIGDDANFFQALDFKDCADIVINDLSLIHELPKEDIQTFCHPSMIQRWSLDKYAMGGITTFTPYQFQHFSEALTAPFKRIYFAGEYTAQFHGWIDSTIKSGLTAARDVNRASENPSGIHLSNDNEF
modifications: Crotalus atrox
B3: amino acid eliminating enzyme 2: Crotalus adamanteus-derived L-amino acid oxidase Type I, manufactured by Merck KGaA (SEQ ID NO: 19) (protein, listed as Crotalus adamanteus)
chain: AHDRNPLEECFRETDYEEFLEIAKNGLTATSNPKRVVIVGAGMAGLSAAYVLAGAGHQVTVLEASERVGGRVRTYRKKDWYANLGPMRLPTKHRIVREYIKKFDLKLNEFSQENENAWYFIKNIRKRVREVKNNPGLLEYPVKPSEEGKSAAQLYVESLRKVVEELRSTNCKYILDKYDTYSTKEYLLKEGNLSPGAVDMIGDLLNEDSGYYVSFIESLKHDDIFGYEKRFDEIVGGMDQLPTSMYEAIKEKVQVHFNARVIEIQQNDREATVTYQTSANEMSSVTADYVIVCTTSRAARRIKFEPPLPPKKAHALRSVHYRSGTKIFLTCTKKFWEDDGIHGGKSTTDLPSRFIYYPNHNFTSGVGVIIAYGIGDDANFFQALDFKDCADIVINDLSLIHELPKEDIQTFCHPSMIQRWSLDKYAMGGITTFTPYQFQHFSEALTAPFKRIYFAGEYTAQFHGWIDSTIKSGLTAARDVNRASENPSGIHLSNDNEF
B4: Trichoderma viride-Derived Lysine Oxidase: purchased enzyme manufactured by Merck KGaA, SEQ ID NO: 14 (protein)
chain: MDNVDFAESVRTRWARRLIREKVAKELNILTERLGEVPGIPPPREGRFLGGGYSHDNLPSDPLYSSIKPALLKEAPRAEEELPPRKVCIVGAGVSGLYIAMILDDLKIPNLTYDIFESSSRTGGRLYTHHFTDAKHDYYDIGAMRYPDIPSMKRTFNLFKRTGMPLIKYYLDGENTPQLYNNHFFAKGVVDPYMVSVANGGTVPDDVVDSVGEKLQQAFGYYKEKLAEDFDKGFDELMLVDDMTTREYLKRGGPKGEAPKYDFFAIQWMETQNTGTNLFDQAFSESVIDSFDFDNPTKPEWYCIEGGTSLLVDAMKETLVHKVQNNKRVEAISIDLDAPDDGNMSVKIGGKDYSGYSTVFNTTALGCLDRMDLRGLNLHPTQADAIRCLHYDNSTKVALKFSYPWWIKDCGITCGGAASTDLPLRTCVYPSYNLGDTGEAVLLASYTWSQDATRIGSLVKDAPPQPPKEDELVELILQNLARLHAEHMTYEKIKEAYTGVYHAYCWANDPNVGGAFALFGPGQFSNLYPYLMRPAAGGKFHIVGEASSVHHAWIIGSLESAYTAVYQFLYKYKMWDYLRLLLERWQYGLQELETGKHGTAHLQFILGSLPKEYQVKIV
modifications: Trichoderma viride
B5: amino acid degrading enzyme 1: mature escapin derived from Aplysia californica (SEQ ID NO: 15) expressed in Aspergillus sojae (protein, listed as Aplysia californica)
chain: DGVCRNRRQCNKEVCGSSYDVAIVGAGPGGANSAYMLRESGLDIAVFEYSDRVGGRLFTYQLPNTPDVNLEIGGMRFIEGAMHRLWKVISELGLTPKVFKEGFGKEGRQRFYLRGQSLTKKQVKSGDVPYDLSPEEKANQGRLVEYYLEKLTGLQLNGGPLKREVALKLTVPDGRFLYDLTFDEALDLVASPEGKEFARDTHVFTSEVTLDASAISIFDDHLGEDYYGSEIYTLEEGMSSVPQGLLQTFLDAAKSNEFFPNNHLKALRRRTNGQYVLYFEPTTSKDGQTTINYLEPLKVVCAQRVILAMPVYALRQLDWSQLRNDRATQAYRAVRPMPASKVFMTFDQPWWLQNERKSWVTKSDALFSQMYDWQKSEASGDYILIASYADGLKAQYLRELKNQGEDIPGSDPGYNQVTVPLKDAILEHLTEAYGVERDSIPEPVTAASQFWTDYPFGCGWITWRAGYHFDDVISTMRRPSLKDEVYVVGSDYSWGLISSWIEGALETSENVINDYFL

Tests used:
Assay type in all cases: biochemical
[1] = Pentosidine quantification test (DA-67/peroxidase, A658); settings: 37° C., pH 7.0
Protocol: The following reagents were prepared, and pentosidine was measured using Bio Majesty JCA-BM1650 (manufactured by JEOL Ltd.).
0.2 μM, 0.4 μM, 0.6 μM, 1.0 μM, 2.0 μM or 4.0 μM pentosidine solution (prepared using the same pentosidine as in Example 2)
120 mM potassium phosphate buffer (pH 7.0)
0.2 mM DA-67 (10-(carboxymethylaminocarbonyl)-3,7-bis(dimethylamino)phenothiazine, sodium salt) (manufactured by FUJIFILM Wako Pure Chemical Corp.)
25 μL of each sample was added to 50 μL of the first reagent, and the mixture was incubated at 37° C. for 5 minutes. Then, 25 μL of the second reagent was added thereto, and pentosidine oxidation reaction mediated by PenOX2 and reaction for the detection of hydrogen peroxide produced through the reaction were allowed to proceed at 37° C. for 5 minutes.
In the reaction for the detection of hydrogen peroxide, DA-67 was oxidized, with concomitant consumption of […], into methylene blue which in turn developed color while absorbance (A658) was elevated. […] Elevation in A658 was able to be confirmed immediately after addition of the second reagent containing PenOX2.
Subsequently, the amount of elevation in A658 (ΔA) caused by the oxidation of pentosidine was calculated according to the following expression.
ΔA=(Absorbance 5 minutes after addition of the second reagent)−(Absorbance immediately before addition of the second reagent×0.75)

[2] = Method for measuring enzymatic activity (pentosidine oxidase activity, A555), Examples 9 and 10; settings: 37° C., pH 7.5; 1 mg enzyme powder in 1 mL deionized water
Protocol: The amount of the enzyme that produced 1 μmol of hydrogen peroxide per minute at 37° C. was defined as 1 unit (U). The activity was calculated according to the following expression.
Each buffer was prepared as a 50 mM (final concentration) citric acid-100 mM potassium phosphate buffer (pH 4.0 to 7.5), a 100 mM (final concentration) potassium phosphate buffer (pH 6.5 to 8.0), and a 100 mM (final concentration) glycine buffer (pH 8.0 to 11.0). Enzyme reaction was performed at each pH at a temperature of 37° C. using these buffers. […] It was therefore concluded that the optimum pH of PenOX2 is pH 6.5 to 8.0 and is most preferably pH 7.5.
The activity of PenOX2 was measured at varying temperatures using a 50 mM (final concentration) potassium phosphate buffer (pH 7.5). […] It was thus concluded that the range of the optimum temperature of PenOX2 is from 37° C. to 50° C.
As mentioned above, both PenOX1 and PenOX2 had pentosidine oxidase activity. When the percent match between their amino acid sequences was examined using the BLAST program, the amino acid sequence homology therebetween was 38.2%. […] The amino acid sequence homology to PenOX1 and PenOX2 and pentosidine oxidase activity of each enzyme were as follows.

[3] = Substrate specificity analysis of amino acid degrading enzymes (reaction rate, A555); settings: room temperature, pH 6.8, amino acids 4 mM, pentosidine 2 mM solutions
Protocol: The amino acid eliminating enzyme 1 liquid obtained in Example 12 was diluted to 0.134 U/ml with a 0.1 M potassium phosphate buffer (pH 6.8).
Pentosidine (which was the same as in Example 12) was dissolved at 2 mM in deionized water. Various amino acids were each dissolved at 4 mM in deionized water.
Peroxidase (manufactured by Toyobo Co., Ltd.) (3.99 U/ml), 4-aminoantipyrine (manufactured by Fluka/Honeywell International Inc.) (1.8 mM), and TOOS (manufactured by Dojindo Laboratories Co., Ltd.) (2 mM) were dissolved in deionized water.
Every measurement was performed at room temperature unless otherwise specified. A 96-well microwell plate (manufactured by Nunc/Thermo Fisher Scientific, Inc.) was used in reaction.
25 μl of each amino acid solution or the pentosidine solution of (2) and 25 μl of the coloring reagent of (3) were added in order to 50 μl of the enzyme liquid of (1). At the start and ten minutes later, absorbance at 555 nm was measured. A slope of elevation in absorbance was regarded as a reaction rate for the target substrate. […]
Every measurement was performed at room temperature unless otherwise specified. […] At the start and ten minutes later, absorbance at 555 nm was measured. A slope of elevation in absorbance was regarded as a reaction rate for the target substrate.

Molecule | specific activity (pentosidine oxidase) as a reference value [2] | substrate having the highest reaction rate [3] | further results
B1 |  |  | pentosidine oxidizing activity [1]: exhibited pentosidine oxidizing activity
B2 | 0.022 U/mg |  | 
B3 |  | leucine | 
B4 | 0.063 U/mg |  | 
B5 |  | arginine | 
